Molecular target: T1, SpoIVA^AF488 (His6-tagged cysteine-less SpoIVA variant, C98S, with a single engineered N-terminal cysteine, … (Bacillus subtilis, UniProt P35149 1-492, Alexa Fluor 488 C5-maleimide on the single engineered cysteine at the N-terminus (second residue)))
T1 construct: SpoIVA polymerizes in the presence of ATP; also called SpoIVA^A488
T1 sequence: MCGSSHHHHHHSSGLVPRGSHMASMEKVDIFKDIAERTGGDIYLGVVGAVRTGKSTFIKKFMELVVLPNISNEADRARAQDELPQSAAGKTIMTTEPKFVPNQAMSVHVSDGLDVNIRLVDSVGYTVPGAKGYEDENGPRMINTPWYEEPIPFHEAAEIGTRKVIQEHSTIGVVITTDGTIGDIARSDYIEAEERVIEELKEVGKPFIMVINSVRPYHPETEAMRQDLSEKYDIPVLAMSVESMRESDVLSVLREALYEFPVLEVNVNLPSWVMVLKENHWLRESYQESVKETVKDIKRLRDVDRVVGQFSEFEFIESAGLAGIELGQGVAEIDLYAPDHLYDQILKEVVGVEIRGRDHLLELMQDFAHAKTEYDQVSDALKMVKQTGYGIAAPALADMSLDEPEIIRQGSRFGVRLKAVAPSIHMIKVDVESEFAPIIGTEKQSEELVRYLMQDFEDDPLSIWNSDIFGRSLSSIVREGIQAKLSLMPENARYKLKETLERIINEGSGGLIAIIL
Assay: fluorescence microscopy of SpoVM-coated SSLBs incubated with increasing SpoIVA^AF488
Procedure: SpoVM-coated SSLBs were collected by centrifugation at 13,000×g for 1 minute, and then were incubated with varying concentrations of SpoIVA^AF488 in a final volume of 100 μL buffer A containing 10 mM MgCl₂ and 4 mM ATP, overnight at room temperature with gentle inversion. SSHEL particles were collected by centrifugation and resuspended in 100 μL buffer A for microscopy. For competition assays, SpoVM-SSLBs were incubated with 0.006 μM SpoIVA^A488 in the presence or absence of 4 mM ATP in buffer A containing 10 mM MgCl₂. The fluorescent SSLBs were collected by centrifugation, and resuspended with 100 μL buffer A containing 5 μM unlabeled SpoIVA. 5 μL aliquots were taken at indicated time points for microscopy.
To test this model of basement layer assembly in vitro, spherical supported lipid bilayers (SSLBs) were constructed by coating 2 μm-diameter silica beads with a phospholipid bilayer (Bayerl and Bloom, Biophys J 58, 357-362 (1990) and Gopalakrishnan and Rouiller, Langmuir 25, 5455-5458 (2009)) to mimic the surface of the forespore. […] The SpoVM-coated SSLBs were then incubated with increasing concentrations of SpoIVA^AF488 and measured its adsorption using fluorescence microscopy (FIG. 1C). […] At higher concentrations of SpoIVA^AF488 the heterogeneity in fluorescence between SSLBs was reduced and SpoIVA^AF488 adsorption approached saturation (FIG. 1C, 1E).

binding result: binds
B1: SpoVM (synthesized 26 amino acid peptide, adsorbed on spherical supported lipid bilayers) (peptide)
peptide: MKFYTIKLPKFLGGIVRAMLGSFRKD
notes: also called SpoVM peptide; SpoVM-coated SSLBs

— patent US20180055925A1 (UNITED STATES OF AMERICA AS REPRESENTED BY THE SECRETARY …, published 2018)
